The source of these data is patent publication US20230235072A1 (DENALI THERAPEUTICS, published 2023).

Test [1] addresses T1, cynomolgus transferrin receptor (TfR) ectodomain (ECD) (cynomolgus, UniProt Q5RDH6 121-760 (Pongo abelii entry), biotinylated where captured on streptavidin).
T1 construct: also called cyno TfR; cynoTfR
T1 chain: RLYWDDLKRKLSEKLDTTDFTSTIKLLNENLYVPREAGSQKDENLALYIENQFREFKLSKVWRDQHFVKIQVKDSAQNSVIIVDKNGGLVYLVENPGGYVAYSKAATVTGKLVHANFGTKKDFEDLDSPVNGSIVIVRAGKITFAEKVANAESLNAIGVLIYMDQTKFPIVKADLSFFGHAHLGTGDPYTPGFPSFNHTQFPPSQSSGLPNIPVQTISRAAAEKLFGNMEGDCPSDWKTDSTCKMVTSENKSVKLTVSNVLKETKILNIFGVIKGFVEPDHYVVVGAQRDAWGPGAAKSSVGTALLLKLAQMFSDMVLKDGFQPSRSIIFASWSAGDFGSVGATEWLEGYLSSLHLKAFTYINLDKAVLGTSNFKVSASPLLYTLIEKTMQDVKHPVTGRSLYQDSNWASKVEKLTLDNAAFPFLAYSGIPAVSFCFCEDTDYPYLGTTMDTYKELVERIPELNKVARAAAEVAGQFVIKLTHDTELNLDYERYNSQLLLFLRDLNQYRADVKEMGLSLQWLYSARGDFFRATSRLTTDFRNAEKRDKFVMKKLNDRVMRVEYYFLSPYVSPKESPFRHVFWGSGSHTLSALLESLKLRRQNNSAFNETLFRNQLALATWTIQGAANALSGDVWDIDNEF
In words: ELISA, Fc-Fab fusion titrated on plate-coated cyno TfR; OD650. An excerpt:
(§1) The CH2C variants were expressed as Fc fusions to Fab fragments by cloning into an expression vector containing an anti-BACE1 benchmark variable region sequence.

Test [2] has as its target T2, human transferrin receptor (TfR) ectodomain (ECD) (human, UniProt P02786 121-760, biotinylated where captured on streptavidin).
T2 construct: also called human TfR; huTfR
In words: ELISA, Fc-Fab fusion titrated on plate-coated human TfR; OD650.
Excerpt: as §1
On the technique in general: ELISA stands for enzyme-linked immunosorbent assay.

Test [3] concerns the target T1, cynomolgus transferrin receptor (TfR) …. The experiment in a line: ELISA, Fc-Fab fusion (dimer format) titrated on plate-coated cyno TfR; OD650.
In test [4] the target is T2, human transferrin receptor (TfR) …. The experiment in a line: ELISA, Fc-Fab fusion (dimer format) titrated on plate-coated human TfR; OD650. How it is done:
Fc regions comprising the CH3B clone sequences were fused to Fab fragments and were assayed in a dimer format.

B1: Clone CH2C.3 (designed binder)
chain: PCPAPELLGGPSVFLFPPKPKDTLMISRTPEVTCVVVDPQTPPWEVKFNWYVDGVEVHNAKTKPREEEYYSNYRVVSVLTVLHQDWLNGKEYKCKVSNKALPAPIEKTISKAKGQPREPQVYTLPPSRDELTKNQVSLTCLVKGFYPSDIAVEWESNGQPENNYKTTPPVLDSDGSFFLYSKLTVDKSRWQQGNVFSCSVMHEALHNHYTQKSLSLSPGK
Consider B1, for which the binding result in test [1] and in test [2] was “binds” each time.

B2: Clone CH2C.8 (designed binder)
chain: PCPAPELLGGPSVFLFPPKPKDTLMISRTPEVTCVVVDPAFPPWEVKFNWYVDGVEVHNAKTKPREEEYYQNYRVVSVLTVLHQDWLNGKEYKCKVSNKALPAPIEKTISKAKGQPREPQVYTLPPSRDELTKNQVSLTCLVKGFYPSDIAVEWESNGQPENNYKTTPPVLDSDGSFFLYSKLTVDKSRWQQGNVFSCSVMHEALHNHYTQKSLSLSPGK
For the molecule B2, the binding result is “binds” in test [1] and “no binding (tested: 1000 nM)” in test [2].

B3: Clone CH2C.5 (designed binder)
chain: PCPAPELLGGPSVFLFPPKPKDTLMISRTPEVTCVVVDPQTVPWEVKFNWYVDGVEVHNAKTKPREEEYYSNYRVVSVLTVLHQDWLNGKEYKCKVSNKALPAPIEKTISKAKGQPREPQVYTLPPSRDELTKNQVSLTCLVKGFYPSDIAVEWESNGQPENNYKTTPPVLDSDGSFFLYSKLTVDKSRWQQGNVFSCSVMHEALHNHYTQKSLSLSPGK
For the molecule B3, the binding result in test [1] and in test [2] was “binds” each time.

B4: Clone CH2C.6 (designed binder)
chain: PCPAPELLGGPSVFLFPPKPKDTLMISRTPEVTCVVVDPKMPPWEVKFNWYVDGVEVHNAKTKPREEEYYTYYRVVSVLTVLHQDWLNGKEYKCKVSNKALPAPIEKTISKAKGQPREPQVYTLPPSRDELTKNQVSLTCLVKGFYPSDIAVEWESNGQPENNYKTTPPVLDSDGSFFLYSKLTVDKSRWQQGNVFSCSVMHEALHNHYTQKSLSLSPGK
B4: the binding result in test [1] and in test [2] was “binds” each time.

B5: Clone CH2C.4 (designed binder)
chain: PCPAPELLGGPSVFLFPPKPKDTLMISRTPEVTCVVVDFRGPPWEVKFNWYVDGVEVHNAKTKPREEEYYHDYRVVSVLTVLHQDWLNGKEYKCKVSNKALPAPIEKTISKAKGQPREPQVYTLPPSRDELTKNQVSLTCLVKGFYPSDIAVEWESNGQPENNYKTTPPVLDSDGSFFLYSKLTVDKSRWQQGNVFSCSVMHEALHNHYTQKSLSLSPGK
As usually defined, the EC50 (read off the curve) is the concentration at which the effect is half-maximal. High values mean a less potent agent, low ones a more potent agent. Take B5: the “EC50 (read off the curve)” value in test [1] is around 8 nM.

B6: Clone CH2C.1 (designed binder)
chain: PCPAPELLGGPSVFLFPPKPKDTLMISRTPEVTCVVVDPQTPPWEVKFNWYVDGVEVHNAKTKPREEEYYTYYRVVSVLTVLHQDWLNGKEYKCKVSNKALPAPIEKTISKAKGQPREPQVYTLPPSRDELTKNQVSLTCLVKGFYPSDIAVEWESNGQPENNYKTTPPVLDSDGSFFLYSKLTVDKSRWQQGNVFSCSVMHEALHNHYTQKSLSLSPGK
Consider B6, for which the “EC50 (read off the curve)” value in test [1] is around 8 nM. For the same molecule, the binding result in test [2] is “binds”.

B7: Clone CH2C.7 (designed binder)
chain: PCPAPELLGGPSVFLFPPKPKDTLMISRTPEVTCVVVDPPVPPWEVKFNWYVDGVEVHNAKTKPREEEYYSNYRVVSVLTVLHQDWLNGKEYKCKVSNKALPAPIEKTISKAKGQPREPQVYTLPPSRDELTKNQVSLTCLVKGFYPSDIAVEWESNGQPENNYKTTPPVLDSDGSFFLYSKLTVDKSRWQQGNVFSCSVMHEALHNHYTQKSLSLSPGK
notes: found on phage
With B7, the binding result in test [1] and in test [2] was “binds” in each case.

B8: Clone CH2C.2 (designed binder)
chain: PCPAPELLGGPSVFLFPPKPKDTLMISRTPEVTCVVVDPPSPPWEVKFNWYVDGVEVHNAKTKPREEEYYSNYRVVSVLTVLHQDWLNGKEYKCKVSNKALPAPIEKTISKAKGQPREPQVYTLPPSRDELTKNQVSLTCLVKGFYPSDIAVEWESNGQPENNYKTTPPVLDSDGSFFLYSKLTVDKSRWQQGNVFSCSVMHEALHNHYTQKSLSLSPGK
As to B8, the binding result in test [1] and in test [2] was “binds” throughout.

B9: Clone CH3B.1 (designed binder)
chain: PCPAPELLGGPSVFLFPPKPKDTLMISRTPEVTCVVVDVSHEDPEVKFNWYVDGVEVHNAKTKPREEQYNSTYRVVSVLTVLHQDWLNGKEYKCKVSNKALPAPIEKTISKAKGQPRFDYVTTLPPSRDELTKNQVSLTCLVKGFYPSDIAVEWESNGQPENNYKTTPPVLDSDGSFFLYSKLTVDKSRWQQGNVFSCSVMHEALHNHYGFHDLSLSPGK
For B9, the “EC50 (read off the curve)” value is around 3 nM in test [3] and around 4 nM in test [4].

B10: Clone CH3B.4 (designed binder)
chain: PCPAPELLGGPSVFLFPPKPKDTLMISRTPEVTCVVVDVSHEDPEVKFNWYVDGVEVHNAKTKPREEQYNSTYRVVSVLTVLHQDWLNGKEYKCKVSNKALPAPIEKTISKAKGQPRFEMVTTLPPSRDELTKNQVSLTCLVKGFYPSDIAVEWESNGQPENNYKTTPPVLDSDGSFFLYSKLTVDKSRWQQGNVFSCSVMHEALHNHYGFHDLSLSPGK
In the case of B10, the binding result in test [3] and in test [4] was “binds” in each case.

B11: Clone CH3B.5 (designed binder)
chain: PCPAPELLGGPSVFLFPPKPKDTLMISRTPEVTCVVVDVSHEDPEVKFNWYVDGVEVHNAKTKPREEQYNSTYRVVSVLTVLHQDWLNGKEYKCKVSNKALPAPIEKTISKAKGQPRFELVTTLPPSRDELTKNQVSLTCLVKGFYPSDIAVEWESNGQPENNYKTTPPVLDSDGSFFLYSKLTVDKSRWQQGNVFSCSVMHEALHNHYGFHDLSLSPGK
Take B11: the binding result in test [3] and in test [4] was “binds” each time.

B12: Clone CH3B.6 (designed binder)
chain: PCPAPELLGGPSVFLFPPKPKDTLMISRTPEVTCVVVDVSHEDPEVKFNWYVDGVEVHNAKTKPREEQYNSTYRVVSVLTVLHQDWLNGKEYKCKVSNKALPAPIEKTISKAKGQPRFEIVTTLPPSRDELTKNQVSLTCLVKGFYPSDIAVEWESNGQPENNYKTTPPVLDSDGSFFLYSKLTVDKSRWQQGNVFSCSVMHEALHNHYGFHDLSLSPGK
B12: the binding result in test [3] and in test [4] was “binds” in each case.

B13: Clone CH3B.7 (designed binder)
chain: PCPAPELLGGPSVFLFPPKPKDTLMISRTPEVTCVVVDVSHEDPEVKFNWYVDGVEVHNAKTKPREEQYNSTYRVVSVLTVLHQDWLNGKEYKCKVSNKALPAPIEKTISKAKGQPRFDIVTTLPPSRDELTKNQVSLTCLVKGFYPSDIAVEWESNGQPENNYKTTPPVLDSDGSFFLYSKLTVDKSRWQQGNVFSCSVMHEALHNHYGFHDLSLSPGK
Regarding B13, the binding result in test [3] and in test [4] was “binds” each time.

B14: Clone CH3B.3 (designed binder)
chain: PCPAPELLGGPSVFLFPPKPKDTLMISRTPEVTCVVVDVSHEDPEVKFNWYVDGVEVHNAKTKPREEQYNSTYRVVSVLTVLHQDWLNGKEYKCKVSNKALPAPIEKTISKAKGQPRFEYVTTLPPSRDELTKNQVSLTCLVKGFYPSDIAVEWESNGQPENNYKTTPPVLDSDGSFFLYSKLTVDKSRWQQGNVFSCSVMHEALHNHYGFHDLSLSPGK
Turning to B14, the binding result in test [3] and in test [4] was “binds” in each case.

B15: Clone CH3B.2 (designed binder)
chain: PCPAPELLGGPSVFLFPPKPKDTLMISRTPEVTCVVVDVSHEDPEVKFNWYVDGVEVHNAKTKPREEQYNSTYRVVSVLTVLHQDWLNGKEYKCKVSNKALPAPIEKTISKAKGQPRFDMVTTLPPSRDELTKNQVSLTCLVKGFYPSDIAVEWESNGQPENNYKTTPPVLDSDGSFFLYSKLTVDKSRWQQGNVFSCSVMHEALHNHYGFHDLSLSPGK
With B15, the “EC50 (read off the curve)” value in test [3] was around 2 nM; in test [4], around 4 nM.

B16: Clone CH3B.9 (designed binder)
chain: PCPAPELLGGPSVFLFPPKPKDTLMISRTPEVTCVVVDVSHEDPEVKFNWYVDGVEVHNAKTKPREEQYNSTYRVVSVLTVLHQDWLNGKEYKCKVSNKALPAPIEKTISKAKGQPRFGMVTTLPPSRDELTKNQVSLTCLVKGFYPSDIAVEWESNGQPENNYKTTPPVLDSDGSFFLYSKLTVDKSRWQQGNVFSCSVMHEALHNHYGFHDLSLSPGK
With B16, the binding result in test [3] and in test [4] was “binds” in each case.
